doi:10.1101/797027 (bioRxiv, 2019)

T1: hRpn10^305–377 (RAZUL, Rpn10 AZUL binding domain) (human, UniProt P55036 305-377)
T1 sequence (looked up): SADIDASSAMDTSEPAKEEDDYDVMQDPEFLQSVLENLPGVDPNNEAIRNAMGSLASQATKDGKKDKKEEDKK

T2: GST-hRpn10^305–377 (human, UniProt P55036 305-377)
T2 sequence (looked up): T1 sequence (looked up)

B1: His-hRpn10^196–377 (domain or fragment)
chain: MLGLGASDFEFGVDPSADPELALALRVSMEEQRQRQEEEARRAAAASAAEAGIATTGTEDSDDALLKMTISQQEFGRTGLPDLSSMTEEEQIAYAMQMSLQGAEFGQAESADIDASSAMDTSEPAKEEDDYDVMQDPEFLQSVLENLPGVDPNNEAIRNAMGSLASQATKDGKKDKKEEDKK
B2: E6AP AZUL domain, E6AP[24–87] (domain or fragment, human, UniProt Q05086 24-87, looked up)
chain: MKRAAAKHLIERYYHQLTEGCGNEACTNEFCASCPTFLRMDNNAAAIKALELYKINAKLCDPHP

How the values were obtained:
ubiquitin = ubiquitin (UniProt P0CG48 1-76); assay: NMR titration
[1] = molecular target: T1, hRpn10^305–377 (RAZUL, Rpn10 AZUL …); assay: ITC
GST-hRpn10^305–377 = molecular target: T2, GST-hRpn10^305–377; assay: SPR

| Binder | binding result (ubiquitin) | Kd [1] | Kd (GST-hRpn10^305–377) |
| --- | --- | --- | --- |
| B1 | binds | – | – |
| B2 | – | 11.6 nM | 8.1 nM |
